Tests used:
RPS27 (human) = RPS27 (human) (UniProt P42677); assay: co-IP with control IgG, mass spectrometry; lysate of cells with C-FLAG B3GNT2
ARF4 (human) = ARF4 (human) (UniProt P18085); assay: as above
CCT7 (human) = CCT7 (human) (UniProt Q99832); assay: as above
ARHGEF2 (human) = ARHGEF2 (human) (UniProt Q92974); assay: as above
HADHA (human) = HADHA (human) (UniProt P40939); assay: as above
RPL32 (human) = RPL32 (human) (UniProt P62910); assay: as above
CD70 (human) = CD70 (human) (UniProt P32970); assay: as above
RPS4X (human) = RPS4X (human) (UniProt P62701); assay: as above
PIGR (human) = PIGR (human) (UniProt P01833); assay: as above
CTHRC1 (human) = CTHRC1 (human) (UniProt Q96CG8); assay: as above
UGGT1 (human) = UGGT1 (human) (UniProt Q9NYU2); assay: as above
MYO1C (human) = MYO1C (human) (UniProt O00159); assay: as above
CHCHD3 (human) = CHCHD3 (human) (UniProt Q9NX63); assay: control IP with IgG, lysate of cells with C-FLAG B3GNT2, mass spectrometry
KCTD5 (human) = KCTD5 (human) (UniProt Q9NXV2); assay: as above
RPS27A (human) = RPS27A (human) (UniProt P62979); assay: as above
MAP4 (human) = MAP4 (human) (UniProt P27816); assay: as above
SERPINB3 (human) = SERPINB3 (human) (UniProt P29508); assay: as above
GEMIN4 (human) = GEMIN4 (human) (UniProt P57678); assay: as above
RPL28 (human) = RPL28 (human) (UniProt P46779); assay: as above
RPS26 (human) = RPS26 (human) (UniProt P62854); assay: as above
S100A7 (human) = S100A7 (human) (UniProt P31151); assay: as above
TELO2 (human) = TELO2 (human) (UniProt Q9Y4R8); assay: as above
HNRNPM (human) = HNRNPM (human) (UniProt P52272); assay: as above
RPL7 (human) = RPL7 (human) (UniProt P18124); assay: as above
RPS14 (human) = RPS14 (human) (UniProt P62263); assay: as above
RHOT2 (human) = RHOT2 (human) (UniProt Q8IXI1); assay: as above
CCT3 (human) = CCT3 (human) (UniProt P49368); assay: as above
EMILIN1 (human) = EMILIN1 (human) (UniProt Q9Y6C2); assay: as above
FLG (human) = FLG (human) (UniProt P20930); assay: as above
GSN (human) = GSN (human) (UniProt P06396); assay: as above
IMMT (human) = IMMT (human) (UniProt Q16891); assay: as above
SYNCRIP (human) = SYNCRIP (human) (UniProt O60506); assay: as above
PPFIBP1 (human) = PPFIBP1 (human) (UniProt Q86W92); assay: as above
LGALS7B (human) = LGALS7B (human) (UniProt P47929); assay: as above
RPL38 (human) = RPL38 (human) (UniProt P63173); assay: as above
YBX1 (human) = YBX1 (human) (UniProt P67809); assay: as above
RACK1 (human) = RACK1 (human) (UniProt P63244); assay: as above
PKM (human) = PKM (human) (UniProt P14618); assay: as above

TELO2 (human), sequence (Q9Y4R8 whole entry): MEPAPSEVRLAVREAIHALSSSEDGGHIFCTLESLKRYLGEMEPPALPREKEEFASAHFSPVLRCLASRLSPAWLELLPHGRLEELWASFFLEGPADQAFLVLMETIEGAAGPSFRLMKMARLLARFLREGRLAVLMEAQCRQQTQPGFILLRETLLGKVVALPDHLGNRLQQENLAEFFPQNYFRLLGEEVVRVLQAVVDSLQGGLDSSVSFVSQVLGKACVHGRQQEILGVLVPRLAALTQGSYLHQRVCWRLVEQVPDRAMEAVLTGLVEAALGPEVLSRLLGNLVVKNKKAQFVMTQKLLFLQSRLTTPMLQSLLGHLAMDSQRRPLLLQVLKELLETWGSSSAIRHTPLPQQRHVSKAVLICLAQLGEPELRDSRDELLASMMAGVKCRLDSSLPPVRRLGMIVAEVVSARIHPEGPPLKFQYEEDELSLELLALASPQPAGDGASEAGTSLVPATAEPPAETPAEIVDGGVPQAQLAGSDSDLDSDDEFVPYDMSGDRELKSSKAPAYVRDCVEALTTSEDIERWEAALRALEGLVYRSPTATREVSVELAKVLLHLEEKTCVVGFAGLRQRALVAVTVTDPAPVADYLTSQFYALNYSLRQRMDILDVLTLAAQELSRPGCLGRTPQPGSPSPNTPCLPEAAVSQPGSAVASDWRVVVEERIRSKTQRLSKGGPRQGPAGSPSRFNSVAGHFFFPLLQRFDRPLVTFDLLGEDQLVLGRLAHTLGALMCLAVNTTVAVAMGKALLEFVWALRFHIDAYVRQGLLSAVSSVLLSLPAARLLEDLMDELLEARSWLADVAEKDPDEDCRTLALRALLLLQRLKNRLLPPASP
PPFIBP1 (human), sequence (Q86W92 other isoform, or with tags, fused parts or gaps limits assumed): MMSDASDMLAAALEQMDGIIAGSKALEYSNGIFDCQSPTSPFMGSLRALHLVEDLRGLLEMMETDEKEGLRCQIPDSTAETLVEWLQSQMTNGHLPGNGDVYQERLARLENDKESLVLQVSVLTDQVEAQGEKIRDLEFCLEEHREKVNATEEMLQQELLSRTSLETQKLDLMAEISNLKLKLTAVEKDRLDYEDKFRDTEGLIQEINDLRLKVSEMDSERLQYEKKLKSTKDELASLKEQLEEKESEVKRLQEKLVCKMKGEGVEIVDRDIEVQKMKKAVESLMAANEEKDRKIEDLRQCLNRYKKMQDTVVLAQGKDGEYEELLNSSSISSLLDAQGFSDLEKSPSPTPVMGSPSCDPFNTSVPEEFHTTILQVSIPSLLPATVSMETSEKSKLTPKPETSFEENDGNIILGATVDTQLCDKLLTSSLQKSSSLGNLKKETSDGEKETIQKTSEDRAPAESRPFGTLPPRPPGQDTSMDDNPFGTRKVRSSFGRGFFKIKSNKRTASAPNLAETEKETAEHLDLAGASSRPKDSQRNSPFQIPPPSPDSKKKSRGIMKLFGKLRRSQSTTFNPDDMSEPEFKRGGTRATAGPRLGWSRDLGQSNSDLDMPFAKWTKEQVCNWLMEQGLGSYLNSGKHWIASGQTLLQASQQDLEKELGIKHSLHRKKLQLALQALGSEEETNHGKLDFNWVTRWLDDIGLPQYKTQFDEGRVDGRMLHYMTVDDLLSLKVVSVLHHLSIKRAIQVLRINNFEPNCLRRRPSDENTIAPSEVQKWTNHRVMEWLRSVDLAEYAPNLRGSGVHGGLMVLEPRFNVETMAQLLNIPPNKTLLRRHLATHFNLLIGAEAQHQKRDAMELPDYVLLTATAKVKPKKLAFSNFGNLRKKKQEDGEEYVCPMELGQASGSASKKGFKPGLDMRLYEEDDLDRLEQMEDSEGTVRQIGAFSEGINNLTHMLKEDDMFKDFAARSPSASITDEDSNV
CTHRC1 (human), sequence (Q96CG8 other isoform, or with tags, fused parts or gaps limits assumed): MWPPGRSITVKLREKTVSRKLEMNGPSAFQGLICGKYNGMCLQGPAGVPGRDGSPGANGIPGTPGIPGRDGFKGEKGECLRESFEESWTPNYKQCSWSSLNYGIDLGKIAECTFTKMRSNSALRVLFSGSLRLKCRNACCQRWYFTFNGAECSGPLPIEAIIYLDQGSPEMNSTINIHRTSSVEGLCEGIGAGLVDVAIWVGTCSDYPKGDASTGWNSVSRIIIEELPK
HADHA (human), sequence (P40939 37-763 limits assumed): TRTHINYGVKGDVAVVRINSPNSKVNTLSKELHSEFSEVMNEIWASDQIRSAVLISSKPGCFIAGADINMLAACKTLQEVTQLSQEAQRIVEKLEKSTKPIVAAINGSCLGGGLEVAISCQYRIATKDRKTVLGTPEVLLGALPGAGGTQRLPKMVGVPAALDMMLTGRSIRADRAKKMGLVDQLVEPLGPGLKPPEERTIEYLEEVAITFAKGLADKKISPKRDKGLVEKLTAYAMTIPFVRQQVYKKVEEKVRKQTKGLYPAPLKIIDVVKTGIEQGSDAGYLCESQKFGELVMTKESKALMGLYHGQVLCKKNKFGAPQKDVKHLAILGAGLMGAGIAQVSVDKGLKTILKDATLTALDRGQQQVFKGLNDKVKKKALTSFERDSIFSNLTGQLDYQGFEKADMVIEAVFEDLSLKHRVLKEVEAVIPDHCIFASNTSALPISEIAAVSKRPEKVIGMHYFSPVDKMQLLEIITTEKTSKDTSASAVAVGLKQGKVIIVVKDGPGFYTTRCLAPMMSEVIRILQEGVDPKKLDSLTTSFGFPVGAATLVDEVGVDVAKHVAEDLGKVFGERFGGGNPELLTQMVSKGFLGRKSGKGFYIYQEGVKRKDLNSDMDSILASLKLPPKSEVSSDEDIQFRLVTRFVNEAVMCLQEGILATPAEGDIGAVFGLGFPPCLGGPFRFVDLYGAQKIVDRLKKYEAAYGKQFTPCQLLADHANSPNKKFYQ
EMILIN1 (human), sequence (Q9Y6C2 22-1016 limits assumed): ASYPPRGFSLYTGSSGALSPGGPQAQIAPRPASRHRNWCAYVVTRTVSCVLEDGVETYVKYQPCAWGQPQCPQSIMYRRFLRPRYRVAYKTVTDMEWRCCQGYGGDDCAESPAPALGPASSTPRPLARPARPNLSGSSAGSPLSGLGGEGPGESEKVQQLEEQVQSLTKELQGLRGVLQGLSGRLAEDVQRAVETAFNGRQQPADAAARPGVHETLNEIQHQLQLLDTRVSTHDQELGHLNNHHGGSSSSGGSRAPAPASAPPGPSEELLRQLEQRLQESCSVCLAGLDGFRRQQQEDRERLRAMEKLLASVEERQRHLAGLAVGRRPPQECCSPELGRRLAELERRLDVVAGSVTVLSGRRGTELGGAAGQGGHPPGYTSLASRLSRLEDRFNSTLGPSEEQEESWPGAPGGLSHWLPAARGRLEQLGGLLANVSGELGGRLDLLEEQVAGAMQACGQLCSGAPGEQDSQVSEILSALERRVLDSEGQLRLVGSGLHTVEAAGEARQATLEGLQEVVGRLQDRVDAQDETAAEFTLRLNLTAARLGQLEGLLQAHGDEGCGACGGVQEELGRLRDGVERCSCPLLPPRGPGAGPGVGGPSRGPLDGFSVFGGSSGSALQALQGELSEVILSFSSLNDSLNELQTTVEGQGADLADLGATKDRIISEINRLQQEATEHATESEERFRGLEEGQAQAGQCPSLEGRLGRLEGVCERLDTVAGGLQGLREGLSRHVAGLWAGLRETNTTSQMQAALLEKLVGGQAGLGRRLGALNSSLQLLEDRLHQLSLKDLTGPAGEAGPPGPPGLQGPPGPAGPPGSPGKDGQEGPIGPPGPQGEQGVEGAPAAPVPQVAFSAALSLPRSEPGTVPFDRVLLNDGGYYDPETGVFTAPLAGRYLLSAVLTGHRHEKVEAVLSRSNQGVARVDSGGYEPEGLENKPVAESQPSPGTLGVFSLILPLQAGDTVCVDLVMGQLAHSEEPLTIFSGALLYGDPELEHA
MYO1C (human), sequence (O00159 other isoform, or with tags, fused parts or gaps limits assumed): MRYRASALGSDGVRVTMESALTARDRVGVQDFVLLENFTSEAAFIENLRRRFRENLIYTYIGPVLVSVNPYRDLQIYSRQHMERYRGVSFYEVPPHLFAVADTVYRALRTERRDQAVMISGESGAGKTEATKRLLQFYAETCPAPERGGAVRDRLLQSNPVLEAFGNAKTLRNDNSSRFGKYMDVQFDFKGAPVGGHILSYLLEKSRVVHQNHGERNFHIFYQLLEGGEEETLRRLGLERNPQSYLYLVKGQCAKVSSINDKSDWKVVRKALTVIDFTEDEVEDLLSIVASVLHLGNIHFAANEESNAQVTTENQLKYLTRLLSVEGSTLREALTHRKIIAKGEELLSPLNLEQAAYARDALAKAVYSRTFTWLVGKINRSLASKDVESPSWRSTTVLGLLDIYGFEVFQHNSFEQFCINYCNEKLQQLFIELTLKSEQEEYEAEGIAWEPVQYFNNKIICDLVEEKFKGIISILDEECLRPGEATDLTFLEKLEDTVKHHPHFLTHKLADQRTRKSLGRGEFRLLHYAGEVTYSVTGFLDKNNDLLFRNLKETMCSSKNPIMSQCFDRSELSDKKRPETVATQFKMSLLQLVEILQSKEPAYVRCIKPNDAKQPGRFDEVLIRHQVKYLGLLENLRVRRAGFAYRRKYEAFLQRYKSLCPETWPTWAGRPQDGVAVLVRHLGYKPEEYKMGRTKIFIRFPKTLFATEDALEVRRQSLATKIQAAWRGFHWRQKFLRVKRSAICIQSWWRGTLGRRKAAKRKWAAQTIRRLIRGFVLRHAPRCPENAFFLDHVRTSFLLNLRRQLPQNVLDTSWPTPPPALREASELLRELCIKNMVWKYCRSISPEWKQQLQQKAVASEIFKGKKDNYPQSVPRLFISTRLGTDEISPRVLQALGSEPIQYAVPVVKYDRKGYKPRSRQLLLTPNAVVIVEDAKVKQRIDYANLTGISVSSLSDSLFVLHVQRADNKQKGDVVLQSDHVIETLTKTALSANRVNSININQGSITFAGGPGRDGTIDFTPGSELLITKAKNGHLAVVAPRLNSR
ARF4 (human), sequence (P18085 2-180 limits assumed): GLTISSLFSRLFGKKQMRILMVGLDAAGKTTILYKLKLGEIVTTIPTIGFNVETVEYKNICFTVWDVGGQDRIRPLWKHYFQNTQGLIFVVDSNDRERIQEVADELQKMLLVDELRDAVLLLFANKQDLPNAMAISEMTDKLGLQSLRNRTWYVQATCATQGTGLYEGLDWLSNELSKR

For “IgG control (Millipore Sigma 12-371) (antibody)”, the co-IP mass spectrometry count (RPS27 (human)) was 0, the co-IP mass spectrometry count (ARF4 (human)) was 0 and the co-IP mass spectrometry count (CCT7 (human)) was 0. It also gave a co-IP mass spectrometry count (ARHGEF2 (human)) of 0, a co-IP mass spectrometry count (HADHA (human)) of 0 and a co-IP mass spectrometry count (RPL32 (human)) of 0. The co-IP mass spectrometry count (CD70 (human)) was 0, the co-IP mass spectrometry count (RPS4X (human)) was 7 and the co-IP mass spectrometry count (PIGR (human)) was 0. The co-IP mass spectrometry count (CTHRC1 (human)) was 0, the co-IP mass spectrometry count (UGGT1 (human)) was 0 and the co-IP mass spectrometry count (MYO1C (human)) was 0. For the same substance, the co-IP mass spectrometry count (CHCHD3 (human)) was 11, the co-IP mass spectrometry count (KCTD5 (human)) was 0 and the co-IP mass spectrometry count (RPS27A (human)) was 14. It also gave a co-IP mass spectrometry count (MAP4 (human)) of 0, a co-IP mass spectrometry count (SERPINB3 (human)) of 2 and a co-IP mass spectrometry count (GEMIN4 (human)) of 0. It also gave a co-IP mass spectrometry count (RPL28 (human)) of 3, a co-IP mass spectrometry count (RPS26 (human)) of 0 and a co-IP mass spectrometry count (S100A7 (human)) of 3. For the same substance, the co-IP mass spectrometry count (TELO2 (human)) was 0, the co-IP mass spectrometry count (HNRNPM (human)) was 5 and the co-IP mass spectrometry count (RPL7 (human)) was 3. It also gave a co-IP mass spectrometry count (RPS14 (human)) of 10, a co-IP mass spectrometry count (RHOT2 (human)) of 0 and a co-IP mass spectrometry count (CCT3 (human)) of 0. The co-IP mass spectrometry count (EMILIN1 (human)) was 0, the co-IP mass spectrometry count (FLG (human)) was 15 and the co-IP mass spectrometry count (GSN (human)) was 0. It also gave a co-IP mass spectrometry count (IMMT (human)) of 16, a co-IP mass spectrometry count (SYNCRIP (human)) of 4 and a co-IP mass spectrometry count (PPFIBP1 (human)) of 0. For the same substance, the co-IP mass spectrometry count (LGALS7B (human)) was 3, the co-IP mass spectrometry count (RPL38 (human)) was 6 and the co-IP mass spectrometry count (YBX1 (human)) was 5. The co-IP mass spectrometry count (RACK1 (human)) was 0 and the co-IP mass spectrometry count (PKM (human)) was 2.
